Measured values reported in patent US20210340225A1.

Molecular target: recombinantly expressed RBD ([change] domain) of bat sarbecovirus WIV16 (bat SARS-like coronavirus WIV16)

Substance: 47D11 fully human IgG1 monoclonal antibody
- EC50 (read off the curve): 0.09 µg/mL
